The target of data set [1] is T1, Human estrogen receptor beta (hERβ) (Homo sapiens, UniProt Q92731 Q92731:1-530). As to the kind of experiment: filter; text prints hERα for this 26 nM value but context compares with hERβ (probable typo). The settings on record: tags: none stated; baculovirus/insect cells; EMD4 Biosciences 330657; label: 32P-CTP internal. The protocol: A constant trace amount of [γ-³²P]-CTP incorporated RNA aptamer (˜0.1 nM) was titrated with increasing amounts of the target protein ranging from 5 to 150 nM. The binding activity at each concentration was determined as % binding, by calculating the radioactive signal of the RNA-protein complex retained on the filter as a percentage of the signal at the highest protein concentration (saturated) used. The assays were performed in triplicates for each aptamer. A binding curve was constructed using Sigma Plot 9.0.1, with average binding affinity (% binding) as a function of the protein concentration using a sigmoidal equation (Hill equation, 3 parameters). Apparent Kd was the protein concentration where half of the maximal binding activity was achieved, and were calculated from the data points by using Sigma Plot. […] The first 3 aptamers were isolated in in vitro selection I, and their affinity rank explains the relative abundance in the final selected library. More specifically, it is believed that AptER-1 dominated the final selected pool because it was the strongest binder. AptER-4 was the weakest binder, and would not have been easily identified in the selection I libraries. […]
T1 sequence (Q92731 whole entry, one chain of several): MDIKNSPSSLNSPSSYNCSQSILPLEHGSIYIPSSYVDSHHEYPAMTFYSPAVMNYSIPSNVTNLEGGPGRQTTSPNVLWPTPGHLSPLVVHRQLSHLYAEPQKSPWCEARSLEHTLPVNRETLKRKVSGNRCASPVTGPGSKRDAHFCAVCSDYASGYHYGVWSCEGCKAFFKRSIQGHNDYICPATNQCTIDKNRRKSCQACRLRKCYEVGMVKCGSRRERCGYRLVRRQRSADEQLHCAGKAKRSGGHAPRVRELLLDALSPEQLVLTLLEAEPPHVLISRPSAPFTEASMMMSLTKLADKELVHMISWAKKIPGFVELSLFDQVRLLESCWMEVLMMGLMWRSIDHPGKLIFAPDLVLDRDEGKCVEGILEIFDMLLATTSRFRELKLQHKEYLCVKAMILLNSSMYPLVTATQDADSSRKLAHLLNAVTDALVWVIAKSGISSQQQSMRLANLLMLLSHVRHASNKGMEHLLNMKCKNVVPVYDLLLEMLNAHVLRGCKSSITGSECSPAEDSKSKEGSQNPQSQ

Data set [2] has as its target T2, Human estrogen receptor alpha (hERα), full-length, unliganded (Homo sapiens, UniProt P03372 P03372:1-595). The experiment in a line: FP; filter-binding assay (nitrocellulose), 12 mM HEPES pH 7.6, 150 mM NaCl, 10 mM MgCl2, 37 C; Hill coefficient about 1. Conditions: tags: none stated; baculovirus/insect cells; Invitrogen P2187 or EMD4 Biosciences 330655; label: 32P-CTP internal. The protocol:
(§1) The dissociation constant (Kd) of the AptER-1, -2, -3, and -4 were measured using a nitrocellulose filter binding assay. A constant trace amount of [γ-³²P]-CTP incorporated RNA aptamer (˜0.1 nM) was titrated with increasing amounts of the target protein ranging from 5 to 150 nM. The binding activity at each concentration was determined as % binding, by calculating the radioactive signal of the RNA-protein complex retained on the filter as a percentage of the signal at the highest protein concentration (saturated) used. The assays were performed in triplicates for each aptamer. A binding curve was constructed using Sigma Plot 9.0.1, with average binding affinity (% binding) as a function of the protein concentration using a sigmoidal equation (Hill equation, 3 parameters). Apparent Kd was the protein concentration where half of the maximal binding activity was achieved, and were calculated from the data points by using Sigma Plot. […] The first 3 aptamers were isolated in in vitro selection I, and their affinity rank explains the relative abundance in the final selected library. More specifically, it is believed that AptER-1 dominated the final selected pool because it was the strongest binder. AptER-4 was the weakest binder, and would not have been easily identified in the selection I libraries.

The target of data set [3] is hERα ligand-binding domain (Homo sapiens, UniProt P03372 P03372:282-595). As to the kind of experiment: EMSA; 100 nM protein, 2.5 nM RNA. The settings on record: tags: GST fusion, baculovirus/insect cells, Invitrogen PV4543, label: 32P-CTP internal. As to the method: Human ERα was incubated with ligands (40 nM to 5 μM E2 or OHT) or vehicle control (EtOH) at 37° C. for 10 min before addition of RNA. Regardless of the absence or presence of the ligands, hERα formed a complex with AptER-1 in the same way. In FIG. 12B, the ligand competition assays showing that the interaction between AptER-4 and hERα was not intervened by ligand-binding. Human ERα was incubated with 1 μM E2 or vehicle control (EtOH) before addition of AptER-4. Regardless of the absence or presence of the ligands, hERα formed a complex with AptER-4 in the same way. […] Proteins were 100 nM. In the presence of hERα, both aptamers were shifted. No binding activity to GST/hERα-LBD was detected.
Sequence of hERα ligand-binding domain (P03372 282-595, one chain of several): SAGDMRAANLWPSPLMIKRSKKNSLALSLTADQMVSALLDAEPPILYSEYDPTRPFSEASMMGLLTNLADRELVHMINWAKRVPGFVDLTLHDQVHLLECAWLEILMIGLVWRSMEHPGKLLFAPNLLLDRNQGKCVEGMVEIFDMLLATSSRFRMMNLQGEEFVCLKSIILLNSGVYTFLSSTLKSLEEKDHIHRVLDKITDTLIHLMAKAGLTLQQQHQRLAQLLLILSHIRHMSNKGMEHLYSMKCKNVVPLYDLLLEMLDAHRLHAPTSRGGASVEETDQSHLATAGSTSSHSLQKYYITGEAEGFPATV
Whether the aptamers bind to LBD was examined in two ways. One approach was an EMSA to directly examine whether the aptamers bound to the GST/hERα-LBD construct. The recombinant human ERα-LBD purchased from Invitrogen was expressed as a GST-tagged fusion protein in baculovirus-infected insect cells. It contains amino acid 282 to 595 of hERα, with a calculated molecular weight of 62.80 kDa protein. According to the manufacturer's instruction, the concentration of functional receptor was determined by quantification of estrodial, [6, 7-³H9(N)] receptor complexes using a hydroxyapatite (HAP) assay. Binding reactions were set up with 2.5 nM radiolabeled aptamers and 100 nM protein. […]

Data set [4] has as its target T3, hERα DNA-binding domain (Homo sapiens, UniProt P03372 P03372:180-268). The experiment in a line: EMSA; also no binding in filter assay. The settings on record: tags: N-terminal His6; E. coli BL21(DE3); label: 32P-CTP internal. As to the method:
No binding activity to RNase inhibitor (control) or DBD & RNase inhibitor was detected. The binding reactions were resolved on the same type of gel as above. […] End-radiolabeled ERE-50mer at 5 nM was mixed with 100× or 400× more concentrated unlabeled competitors ERE-50mer, AptER-1, -2 and -3 RNA or an early generation pool in hERα selection G1 before addition of hERα (40 nM). Only cold ERE-50mer disrupted radioactive ERE-hERα complex.
Class I aptamers bound with similar affinities to both subtypes of ER, which share the highest homology (96%) in the DBD. This raised the possibility that the target site of Class I aptamers was located within the DBD. Whether the aptamers bind to the DBD was tested in binding assays using a recombinant hERα-DBD. It was expressed as a His₆-tagged fusion protein in E. coli BL21 (DE3) and purified as described in the Materials and Methods. To verify its ERE-binding capability, a DNA EMSA was performed. DNA oligo ERE-50mer contains a GAAA tetra loop, which forces the oligo to form a hairpin. A copy of Xenopus laevis vitellogenin A2 ERE (5′-[…]-3′, SEQ ID NO: 73) was presented in the stem of a hairpin. […] However, in both EMSA (FIG. 11B) and filter-binding assay, no association was detected between AptER-1 and DBD. […]

The target in data set [5] is T2, Human estrogen receptor alpha (hERα), …. As to the kind of experiment: filter; same buffer, 37 C; Hill n>1. The settings on record: tags: none stated; baculovirus/insect cells; Invitrogen P2187 or EMD4 Biosciences 330655; label: 32P-CTP internal; predicted three-way junction with two long hairpins. As to the method:
as §1

Data set [6] addresses T1, Human estrogen receptor beta (hERβ). The experiment in a line: filter; affinity for hERβ too low to be determined. The settings on record: tags: none stated; baculovirus/insect cells; EMD4 Biosciences 330657; label: 32P-CTP internal; predicted three-way junction with two long hairpins.
Data set [7] addresses T3, hERα DNA-binding domain. As to the kind of experiment: DBD binding assay, method not specified. Conditions: tags: N-terminal His6; E. coli BL21(DE3); label: 32P-CTP internal; predicted three-way junction with two long hairpins.

T3 sequence (P03372 180-268, one chain of several): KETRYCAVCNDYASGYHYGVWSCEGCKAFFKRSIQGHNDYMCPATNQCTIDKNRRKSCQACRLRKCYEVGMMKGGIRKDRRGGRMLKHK
T2 sequence (P03372 whole entry, one chain of several): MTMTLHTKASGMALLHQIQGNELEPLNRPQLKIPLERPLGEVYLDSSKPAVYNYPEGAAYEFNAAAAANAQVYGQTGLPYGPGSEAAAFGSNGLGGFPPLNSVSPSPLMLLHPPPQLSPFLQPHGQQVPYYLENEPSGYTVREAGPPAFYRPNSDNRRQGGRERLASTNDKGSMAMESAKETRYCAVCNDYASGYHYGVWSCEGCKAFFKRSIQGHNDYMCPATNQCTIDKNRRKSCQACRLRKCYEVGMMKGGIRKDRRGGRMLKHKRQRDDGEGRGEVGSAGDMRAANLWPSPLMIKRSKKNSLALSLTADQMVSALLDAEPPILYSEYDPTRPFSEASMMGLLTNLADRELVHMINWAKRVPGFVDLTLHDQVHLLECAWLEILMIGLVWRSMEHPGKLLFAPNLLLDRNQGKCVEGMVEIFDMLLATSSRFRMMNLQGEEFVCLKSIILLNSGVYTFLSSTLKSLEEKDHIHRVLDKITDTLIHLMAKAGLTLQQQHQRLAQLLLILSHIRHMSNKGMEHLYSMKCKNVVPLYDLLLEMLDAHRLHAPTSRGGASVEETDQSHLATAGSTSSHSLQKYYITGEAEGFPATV

B1: AptER-1 (clone B63) (ssRNA)
RNA: GGGAGAAUUCAACUGCCAUCUAGGCCCACAGUUCAGAGGCACCGCGAACAAAACGCAAGACAGAGUGCCGACAAGAGCACUACAAGCUUCUGGACUCGGU
As to B1, the Kd in data set [1] was approximately 26 nM; in data set [2] it was approximately 16 nM. Further, the binding result (in data set [3]; in the data set with hERα DNA-binding domain [4]) was “no binding” in each case.

B2: AptER-4 (ssRNA)
RNA: GGGAGAAUUCAACUGCCAUCUAGGCCACAGCCGGCGGUCGAACACCAGAGGGCGACUUUGGGUAGUCGAGUAUUAAGUACUACAAGCUUCUGGACUCGGU
As for B2, in data set [5], the dissociation constant (Kd) is approximately 45 nM. In addition, the binding result (in data set [6]; with hERα DNA-binding domain [7]; in data set [3] (predicted three-way junction with two long hairpins)) was “no binding” each time.

(Values after US20150031754, “APTAMER MODULATORS OF ESTROGEN RECEPTORS” (RESEARCH FOUNDATION OF STATE UNIVERSITY OF NEW YORK AT …, published 2015).)
